This series concerns the target T1, peptide substrate MCA-RPPGFSAFK(Dnp)-OH (R&D Systems Cat. No. ES005).
T1 chain: RPPGFSAFK

B1: Neprilysin (R&D Systems, Cat. No 1182-ZNC) (protein)
chain: YDDGICKSSDCIKSAARLIQNMDATTEPCTDFFKYACGGWLKRNVIPETSSRYGNFDILRDELEVVLKDVLQEPKTEDIVAVQKAKALYRSCINESAIDSRGGEPLLKLLPDIYGWPVATENWEQKYGASWTAEKAIAQLNSKYGKKVLINLFVGTDDKNSVNHVIHIDQPRLGLPSRDYYECTGIYKEACTAYVDFMISVARLIRQEERLPIDENQLALEMNKVMELEKEIANATAKPEDRNDPMLLYNKMTLAQIQNNFSLEINGKPFSWLNFTNEIMSTVNISITNEEDVVVYAPEYLTKLKPILTKYSARDLQNLMSWRFIMDLVSSLSRTYKESRNAFRKALYGTTSETATWRRCANYVNGNMENAVGRLYVEAAFAGESKHVVEDLIAQIREVFIQTLDDLTWMDAETKKRAEEKALAIKERIGYPDDIVSNDNKLNNEYLELNYKEDEYFENIIQNLKFSQSKQLKKLREKVDKDEWISGAAVVNAFYSSGRNQIVFPAGILQPPFFSAQQSNSLNYGGIGMVIGHEITHGFDDNGRNFNKDGDLVDWWTQQSASNFKEQSQCMVYQYGNFSWDLAGGQHLNGINTLGENIADNGGLGQAYRAYQNYIKKNGEEKLLPGLDLNHKQLFFLNFAQVWCGTYRPEYAVNSIKTDVHSPGNFRIIGTLQNSAEFSEAFHCRKNSYMNPEKKCRVW
As for B1, the Km [µM] (apparent Km, hydrolysis of fluorogenic peptide substrate) came out at 3.2 µM and the Vmax came out at 2930 s⁻¹.

(Values after patent US20160168253.)
